Here are results for three molecules from article PMC13001094, “Cargo Recognition of Nesprin‑2 by the Dynein Adapter Bicaudal D2 for a Nuclear Positioning Pathway That Is Important for Brain Development” (Biochemistry, 2026).

Assay [1] concerns the target Cytoplasmic dynein (bovine). Nature of the assay: two-colour single-molecule assay (TIRF) of reconstituted complexes on microtubules; BicD2, instead of Nesprin-2, labelled with two different colours in DDBN complexes.
Assay [2] deals with T1, GST-tagged Nesprin-2 (aa 6123–6340) (mouse, UniProt Q6ZWQ0 6123-6340).
T1 construct: lacks the entire intrinsically disordered domain with the LEWD motif; deletion construct of m1; source: E. coli BL21(DE3)-RIL, purified on glutathione resin (not eluted before the pull-down); not shown: GST, N-terminal, kept
T1 sequence (looked up): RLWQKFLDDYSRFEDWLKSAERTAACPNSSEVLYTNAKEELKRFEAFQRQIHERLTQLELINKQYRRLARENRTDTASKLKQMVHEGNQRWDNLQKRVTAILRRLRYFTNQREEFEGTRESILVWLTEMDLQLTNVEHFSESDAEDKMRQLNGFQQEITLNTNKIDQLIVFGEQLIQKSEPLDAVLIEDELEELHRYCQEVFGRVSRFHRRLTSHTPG
Nature of the assay: pull-down; GST-tagged Nesprin-1/2 fragment held on glutathione column (not eluted), incubated 30 min with Ni-NTA-purified His6-BicD2-CTD diluted to 125 mM NaCl; washed twice; eluted with 10 mM glutathione, 50 mM Tris pH 8.0, 150 mM NaCl, 1 mM DTT; SDS-PAGE, Coomassie; band ratio normalised to WT = 1. The conditions noted are these: both partners purified.

In assay [3] the target is T2, GST-tagged mouse Nesprin-2 (aa 6123–6421) (mouse, UniProt Q6ZWQ0 6123-6421).
T2 construct: pGEX6p1 vector; codon-optimised insert from Genscript; also called Nesprin-2-SR52-SR53AD; minimal Nesprin-2 fragment; source: E. coli BL21(DE3)-RIL, purified on glutathione resin (not eluted before the pull-down); not shown: GST, N-terminal, kept
T2 sequence (looked up): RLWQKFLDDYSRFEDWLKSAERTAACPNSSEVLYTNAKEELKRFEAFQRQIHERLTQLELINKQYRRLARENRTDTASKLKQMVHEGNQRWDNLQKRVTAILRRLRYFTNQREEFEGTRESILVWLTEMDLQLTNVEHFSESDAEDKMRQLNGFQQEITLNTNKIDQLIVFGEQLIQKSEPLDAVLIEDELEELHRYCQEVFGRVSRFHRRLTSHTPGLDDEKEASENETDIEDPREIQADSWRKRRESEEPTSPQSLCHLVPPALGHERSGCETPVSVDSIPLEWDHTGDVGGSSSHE
Described as above. Particulars: both partners purified.

In assay [4] the target is T3, GST-tagged human Nesprin-1 (aa 7997–8328) (human, UniProt Q8NF91 7997-8328).
T3 construct: Nesprin-1, human, aa 7997-8328 cloned (the results speak of the domain aa 7998-8315: SR70, SR71 and a disordered domain with a LEWD motif); cloned into the same vector (pGEX6p1) as the Nesprin-2 fragment; also called Nesprin-1-SR70-SR71AD; Nesprin-1 fragment; source: E. coli BL21(DE3)-RIL, purified on glutathione resin (not eluted before the pull-down); not shown: GST, N-terminal, kept
T3 sequence (looked up): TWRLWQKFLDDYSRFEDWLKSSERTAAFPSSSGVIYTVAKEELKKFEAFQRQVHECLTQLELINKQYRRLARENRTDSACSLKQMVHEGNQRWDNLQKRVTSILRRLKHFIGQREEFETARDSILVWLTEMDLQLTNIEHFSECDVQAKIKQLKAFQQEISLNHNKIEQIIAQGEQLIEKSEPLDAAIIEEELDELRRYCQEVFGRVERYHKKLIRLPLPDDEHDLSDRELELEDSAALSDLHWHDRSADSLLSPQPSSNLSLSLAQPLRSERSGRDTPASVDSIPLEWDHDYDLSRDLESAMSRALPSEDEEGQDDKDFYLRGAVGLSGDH
The assay is described as above. Particulars: both partners purified.

For assay [5], the target named is T4, Nesprin-2 fragment of the purified minimal Nesprin-2/BicD2 complex used for SEC-MALS (mouse).
T4 chain: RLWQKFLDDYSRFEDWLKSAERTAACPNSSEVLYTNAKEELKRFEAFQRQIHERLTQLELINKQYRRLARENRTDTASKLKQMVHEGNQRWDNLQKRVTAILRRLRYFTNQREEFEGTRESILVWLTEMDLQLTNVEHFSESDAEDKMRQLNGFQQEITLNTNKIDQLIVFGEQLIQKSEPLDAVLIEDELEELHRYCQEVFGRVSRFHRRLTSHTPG
Nature of the assay: SEC-MALS; purified minimal Nesprin-2/BicD2 complex, GST tag on Nesprin-2; methods in the supplement. Particulars: both partners purified.

On to “Full-length, wild-type human BicD2 (from UniProt Q8TD16-2 1-855) (natural protein)”, for which the stoichiometry N (BicD2 per DDBN complex) in assay [1] turned out to be 1.

B1: His6-tagged human BicD2-CTD (aa 715–804) (domain or fragment, UniProt Q8TD16-2 715-804, looked up)
chain: YENEKAMVTETMMKLRNELKALKEDAATFSSLRAMFATRCDEYITQLDEMQRQLAAAEDEKKTLNSLLRMAIQQKLALTQRLELLELDHE
notes: pET28a vector; source: E. coli LOBSTR BL21(DE3)-RIL, purified (Ni-NTA); not shown: His6, N-terminal, kept
For the molecule B1, the binding result in assay [2], in assay [3] and in assay [4] was “binds” each time.

B2: BicD2-CTD of the purified minimal Nesprin-2/BicD2 complex used for SEC-MALS (domain or fragment, human, UniProt Q8TD16-2 715-804, looked up)
chain: YENEKAMVTETMMKLRNELKALKEDAATFSSLRAMFATRCDEYITQLDEMQRQLAAAEDEKKTLNSLLRMAIQQKLALTQRLELLELDHE
notes: printed protomer mass 10.9 kDa; also called BicD2 protomer (10.9 kDa)
With B2, the “stoichiometry N” value in assay [5] is 1 BicD2 per Nesprin-2 (2:2 complex).
